Measurements: patent US20150344888A1 (Genentech, published 2015)
Numbering of substitutions follows the chain as printed. Where “and” joins values, the source holds several entries; their conditions need not be identical. Equal values may be shown once. Where no end group is shown, it is not given here.

How the values were obtained:
[1] = molecular target: T1, USP30 (active enzyme in the ubiquitin-AMC assay) (Homo sapiens (Human), UniProt Q70CQ3 57-517, limits assumed); experiment: cell-based or functional assay
T1 sequence: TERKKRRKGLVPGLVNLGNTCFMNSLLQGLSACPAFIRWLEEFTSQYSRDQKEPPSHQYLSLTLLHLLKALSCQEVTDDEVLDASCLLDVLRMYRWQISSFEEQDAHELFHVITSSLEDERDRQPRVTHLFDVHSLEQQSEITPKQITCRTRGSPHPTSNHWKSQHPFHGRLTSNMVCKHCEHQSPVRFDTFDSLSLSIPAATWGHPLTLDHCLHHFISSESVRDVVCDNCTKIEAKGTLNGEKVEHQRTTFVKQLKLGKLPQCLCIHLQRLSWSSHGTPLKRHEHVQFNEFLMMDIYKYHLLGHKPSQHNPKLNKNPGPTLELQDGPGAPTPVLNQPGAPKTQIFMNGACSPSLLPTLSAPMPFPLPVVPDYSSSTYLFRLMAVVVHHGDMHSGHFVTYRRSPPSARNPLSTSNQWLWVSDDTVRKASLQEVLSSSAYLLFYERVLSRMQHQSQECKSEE

[2] = molecular target: T2, USP5 (UniProt P45974 1-858, limits assumed); experiment: cell-based or functional assay
T2 sequence (looked up): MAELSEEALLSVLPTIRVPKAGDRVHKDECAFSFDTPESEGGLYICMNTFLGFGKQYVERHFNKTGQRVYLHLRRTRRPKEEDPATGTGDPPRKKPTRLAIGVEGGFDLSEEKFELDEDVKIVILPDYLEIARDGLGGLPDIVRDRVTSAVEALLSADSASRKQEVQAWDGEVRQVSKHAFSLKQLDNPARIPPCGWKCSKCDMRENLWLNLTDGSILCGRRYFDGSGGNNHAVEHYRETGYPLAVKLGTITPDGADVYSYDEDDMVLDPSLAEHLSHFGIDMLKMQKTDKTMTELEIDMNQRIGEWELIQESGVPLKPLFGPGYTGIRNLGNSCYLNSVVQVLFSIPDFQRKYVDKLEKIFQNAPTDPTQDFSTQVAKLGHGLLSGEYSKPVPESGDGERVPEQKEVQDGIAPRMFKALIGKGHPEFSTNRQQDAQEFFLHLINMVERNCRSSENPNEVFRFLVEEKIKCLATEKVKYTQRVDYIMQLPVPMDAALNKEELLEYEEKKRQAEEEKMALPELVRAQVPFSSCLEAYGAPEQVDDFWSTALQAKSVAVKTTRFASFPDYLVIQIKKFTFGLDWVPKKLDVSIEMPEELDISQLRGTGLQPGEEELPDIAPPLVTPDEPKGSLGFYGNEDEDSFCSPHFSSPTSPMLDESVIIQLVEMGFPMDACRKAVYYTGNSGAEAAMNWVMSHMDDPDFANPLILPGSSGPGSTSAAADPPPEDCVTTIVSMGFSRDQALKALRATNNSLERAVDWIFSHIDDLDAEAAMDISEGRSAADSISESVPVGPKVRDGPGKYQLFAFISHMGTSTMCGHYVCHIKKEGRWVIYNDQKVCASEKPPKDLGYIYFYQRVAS

[3] = molecular target: T3, USP2 (UniProt O75604 259-605, limits assumed); experiment: cell-based or functional assay
T3 sequence (looked up): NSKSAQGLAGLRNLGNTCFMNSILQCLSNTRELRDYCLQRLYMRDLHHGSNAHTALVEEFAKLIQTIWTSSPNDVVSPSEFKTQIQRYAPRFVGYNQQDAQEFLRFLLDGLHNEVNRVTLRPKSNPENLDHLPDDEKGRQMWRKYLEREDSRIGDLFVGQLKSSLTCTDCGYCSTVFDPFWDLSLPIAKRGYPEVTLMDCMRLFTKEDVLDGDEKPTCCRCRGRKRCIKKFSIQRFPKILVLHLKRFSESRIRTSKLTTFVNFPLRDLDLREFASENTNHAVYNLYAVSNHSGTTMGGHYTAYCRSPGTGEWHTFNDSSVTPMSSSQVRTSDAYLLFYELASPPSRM

[4] = molecular target: T4, UCHL3 (UniProt P15374 1-230); experiment: cell-based or functional assay
T4 sequence (looked up): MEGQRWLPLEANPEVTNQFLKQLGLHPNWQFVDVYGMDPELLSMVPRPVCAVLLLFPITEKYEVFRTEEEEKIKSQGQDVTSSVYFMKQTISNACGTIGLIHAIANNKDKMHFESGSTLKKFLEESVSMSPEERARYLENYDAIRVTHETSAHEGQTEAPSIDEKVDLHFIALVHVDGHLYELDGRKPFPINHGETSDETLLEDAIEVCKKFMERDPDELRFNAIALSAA

[5] = molecular target: T5, biotinylated USP30_cd (USP30 catalytic domain with C77A mutation) (Homo sapiens (Human), UniProt Q70CQ3 57-517, limits assumed, biotinylated (site not stated)); experiment: spot phage ELISA on biotinylated USP30_cd
T5 sequence: T1 sequence with C21A
Text: The selection identified peptide USP30_{—}3 and USP30_{—}8, which had moderate spot ELISA signals (signal/noise ratios of ˜5).

Binder	IC50, inhibition of ubiquitin-AMC cleavage (initial rate, fluorescence) [1]	IC50, inhibition of ubiquitin-AMC cleavage (initial rate, fluorescence) [2]	fold higher IC50 than for USP30 [2]	IC50, inhibition of ubiquitin-AMC cleavage (initial rate, fluorescence) [3]	fold higher IC50 than for USP30 [3]	IC50, inhibition of ubiquitin-AMC cleavage (initial rate, fluorescence) [4]	signal/noise ratio (spot ELISA) [5]
PLYCFYDLTYGYLCFY (also called pep3; parent USP30-3) [peptide USP30-3]	8 µM	49.4 µM	> 6 fold	~100 µM and > 200 µM	> 10 fold	> 200 µM	~5
VSRCYIFWNEMFCDVE (not fully specified (bridges); cysteine pairing not given here, also called pep8) [peptide USP30-8]	–	–	–	–	–	–	~5
